In WO2024071112A1 (dated 2024):

Biological target: T1, human plasminogen (human, UniProt P00747 20-810, limits assumed)
T1 construct: also called Plg
Assay: ELISA, plate-coated human plasminogen, His-tagged VK and VH peptides bridged and detected by rabbit anti-His tag IgG and HRP anti-rabbit IgG, A450

T1 sequence (P00747 20-810 limits assumed): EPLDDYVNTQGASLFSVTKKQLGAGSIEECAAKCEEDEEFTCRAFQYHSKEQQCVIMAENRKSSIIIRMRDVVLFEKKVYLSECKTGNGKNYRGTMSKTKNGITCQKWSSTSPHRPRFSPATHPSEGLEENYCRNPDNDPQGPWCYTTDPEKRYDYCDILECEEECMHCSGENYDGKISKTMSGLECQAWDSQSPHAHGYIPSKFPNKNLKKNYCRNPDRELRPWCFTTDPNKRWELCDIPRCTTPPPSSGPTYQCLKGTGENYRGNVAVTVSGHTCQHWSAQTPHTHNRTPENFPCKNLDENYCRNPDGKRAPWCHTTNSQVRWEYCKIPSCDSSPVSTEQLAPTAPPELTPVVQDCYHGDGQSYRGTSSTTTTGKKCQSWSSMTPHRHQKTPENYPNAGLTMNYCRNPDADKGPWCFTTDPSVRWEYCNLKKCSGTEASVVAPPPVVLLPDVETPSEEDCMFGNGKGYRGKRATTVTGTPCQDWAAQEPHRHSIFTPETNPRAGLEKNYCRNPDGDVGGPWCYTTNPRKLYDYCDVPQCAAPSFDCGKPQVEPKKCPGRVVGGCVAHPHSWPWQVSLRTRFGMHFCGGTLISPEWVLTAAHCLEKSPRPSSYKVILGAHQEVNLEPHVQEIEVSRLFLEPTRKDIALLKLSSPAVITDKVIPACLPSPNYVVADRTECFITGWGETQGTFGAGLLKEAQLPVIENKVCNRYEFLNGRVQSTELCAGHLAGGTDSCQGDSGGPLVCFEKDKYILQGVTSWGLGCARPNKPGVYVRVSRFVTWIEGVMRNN

B1: VKc4+VHc1 (His-tagged VKc4 domain peptide combined with His-tagged VHc1 domain peptide) (other)
VL: RSDILMTQSPSSMSVSLGDTVSITCHASQGISSNIGWLQQKPGKSFKGLIYHGTNLEDGVPSRFSGSGSGADYSLTITSLESEDFADYYCVQYAQFPWTFGGGTKLEIKDIPWQGLNDIFEAQKIEWHGSHHHHHH
VH: RSEVQLQQSGAELVKPGASVKLSCTASGFNIKDYYMHWVKQRTEQGLEWIGRIDPEDGETKYAPKFQGKATITADTSSNTAYLQLSSLTSEDTAVYYCAPLLGREDYWGQGTTLTVSSDIPWQGLNDIFEAQKIEWHGSHHHHHH
notes: Two separate His-tagged mouse variable domain peptides made in E. coli (crude lysis supernatant), not covalently linked; in the ELISA they are bridged by polyclonal rabbit anti-His tag IgG; also called Kc4Hc1
**Q.** Does B1 bind?
**A.** binds
